Changes are numbered by the printed parent chain. In names and notes the source's numbering stands. One block for each binder: values may come before it.
Target: Human CD137 ECD (human)
Experiment: SPR, vs parent H183/L072

Chain of Human CD137 ECD (human) (chain, as listed by the source limits assumed): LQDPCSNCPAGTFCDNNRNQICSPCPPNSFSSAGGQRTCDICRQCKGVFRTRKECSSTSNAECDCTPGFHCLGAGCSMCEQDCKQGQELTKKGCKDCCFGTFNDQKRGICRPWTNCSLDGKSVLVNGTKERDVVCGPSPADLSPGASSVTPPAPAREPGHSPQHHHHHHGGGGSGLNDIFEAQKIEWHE

B1: dBBDu183H G100hH / dBBDu072L (antibody, name in Kabat numbering, V domains shown)
VH: QVQLVESGGGLVQPGRSLRLSCAASGFTFSNAWMHWVRQAPGKGLEWVAQIKDKGNAYAAYYAPSVKGRFTISRDDSKNSIYLQMNSLKTEDTAVYYCHYVHYASASTVLPAFHVDAWGQGTTVTVSS
VL: DIVMTQSPLSLPVTPGEPASISCQASQELVHMNRNTYLHWYQQKPGQAPRLLIYKVSNRFPGVPDRFSGSGSGTDFTLKISRVEAEDVGVYYCAQGTSVPFTFGQGTKLEIK
- fold change of affinity: 0 fold

B5: dBBDu183H D101H / dBBDu072L (antibody, name in Kabat numbering, V domains shown)
VH: B1 VH with H114G, D116H
VL: B1 VL
- fold change of affinity: 0 fold

B6: dBBDu183H D101R / dBBDu072L (antibody, name in Kabat numbering, V domains shown)
VH: B1 VH with H114G, D116R
VL: B1 VL
- fold change of affinity: 0 fold

B9: dBBDu183H F100gR / dBBDu072L (antibody, name in Kabat numbering, V domains shown)
VH: B1 VH with F113R, H114G
VL: B1 VL
- fold change of affinity: 0 fold

B11: dBBDu183H A102H / dBBDu072L (antibody, name in Kabat numbering, V domains shown)
VH: B1 VH with H114G, A117H
VL: B1 VL
- fold change of affinity: 0 fold

B12: dBBDu183H A100fK / dBBDu072L (antibody, name in Kabat numbering, V domains shown)
VH: B1 VH with A112K, H114G
VL: B1 VL
- fold change of affinity: 0 fold

B13: dBBDu183H A98R / dBBDu072L (antibody, name in Kabat numbering, V domains shown)
VH: B1 VH with A104R, H114G
VL: B1 VL
- fold change of affinity: 0 fold

B14: dBBDu183H S100aR / dBBDu072L (antibody, name in Kabat numbering, V domains shown)
VH: B1 VH with S107R, H114G
VL: B1 VL
- fold change of affinity: 0 fold

B15: dBBDu183H Y94R / dBBDu072L (antibody, name in Kabat numbering, V domains shown)
VH: B1 VH with Y100R, H114G
VL: B1 VL
- fold change of affinity: 0 fold

B21: dBBDu183H G100hK / dBBDu072L (antibody, name in Kabat numbering, V domains shown)
VH: B1 VH with H114K
VL: B1 VL
- fold change of affinity: 0 fold

B22: dBBDu183H H96R / dBBDu072L (antibody, name in Kabat numbering, V domains shown)
VH: B1 VH with H102R, H114G
VL: B1 VL
- fold change of affinity: 0 fold

B24: dBBDu183H A100fR / dBBDu072L (antibody, name in Kabat numbering, V domains shown)
VH: B1 VH with A112R, H114G
VL: B1 VL
- fold change of affinity: 0 fold

B26: dBBDu183H Y97K / dBBDu072L (antibody, name in Kabat numbering, V domains shown)
VH: B1 VH with Y103K, H114G
VL: B1 VL
- fold change of affinity: 0 fold

B28: dBBDu183H L100dR / dBBDu072L (antibody, name in Kabat numbering, V domains shown)
VH: B1 VH with L110R, H114G
VL: B1 VL
- fold change of affinity: 0 fold

B29: dBBDu183H A102R / dBBDu072L (antibody, name in Kabat numbering, V domains shown)
VH: B1 VH with H114G, A117R
VL: B1 VL
- fold change of affinity: 0 fold

B30: dBBDu183H Y94K / dBBDu072L (antibody, name in Kabat numbering, V domains shown)
VH: B1 VH with Y100K, H114G
VL: B1 VL
- fold change of affinity: 0 fold

B31: dBBDu183H H93K / dBBDu072L (antibody, name in Kabat numbering, V domains shown)
VH: B1 VH with H99K, H114G
VL: B1 VL
- fold change of affinity: 0 fold

Continued, values first:

- fold change of affinity: 0 fold
B2: dBBDu183H D101K / dBBDu072L (antibody, name in Kabat numbering, V domains shown)
VH: B1 VH with H114G, D116K
VL: B1 VL

- fold change of affinity: 0 fold
B3: dBBDu183H G100hR / dBBDu072L (antibody, name in Kabat numbering, V domains shown)
VH: B1 VH with H114R
VL: B1 VL

- fold change of affinity: 0 fold
B4: dBBDu183H V100iR / dBBDu072L (antibody, name in Kabat numbering, V domains shown)
VH: B1 VH with H114G, V115R
VL: B1 VL

- fold change of affinity: 0 fold
B7: dBBDu183H A102K / dBBDu072L (antibody, name in Kabat numbering, V domains shown)
VH: B1 VH with H114G, A117K
VL: B1 VL

- fold change of affinity: 0 fold
B8: dBBDu183H F100gK / dBBDu072L (antibody, name in Kabat numbering, V domains shown)
VH: B1 VH with F113K, H114G
VL: B1 VL

- fold change of affinity: 0 fold
B10: dBBDu183H S100aK / dBBDu072L (antibody, name in Kabat numbering, V domains shown)
VH: B1 VH with S107K, H114G
VL: B1 VL

- fold change of affinity: 0 fold
B16: dBBDu183H V95K / dBBDu072L (antibody, name in Kabat numbering, V domains shown)
VH: B1 VH with V101K, H114G
VL: B1 VL

- fold change of affinity: 0 fold
B17: dBBDu183H Y97R / dBBDu072L (antibody, name in Kabat numbering, V domains shown)
VH: B1 VH with Y103R, H114G
VL: B1 VL

- fold change of affinity: 0 fold
B18: dBBDu183H V95R / dBBDu072L (antibody, name in Kabat numbering, V domains shown)
VH: B1 VH with V101R, H114G
VL: B1 VL

- fold change of affinity: 0 fold
B19: dBBDu183H V100iH / dBBDu072L (antibody, name in Kabat numbering, V domains shown)
VH: B1 VH with H114G, V115H
VL: B1 VL

- fold change of affinity: 0 fold
B20: dBBDu183H A98K / dBBDu072L (antibody, name in Kabat numbering, V domains shown)
VH: B1 VH with A104K, H114G
VL: B1 VL

- fold change of affinity: 0 fold
B23: dBBDu183H T100bR / dBBDu072L (antibody, name in Kabat numbering, V domains shown)
VH: B1 VH with T108R, H114G
VL: B1 VL

- fold change of affinity: 0 fold
B25: dBBDu183H V100iK / dBBDu072L (antibody, name in Kabat numbering, V domains shown)
VH: B1 VH with H114G, V115K
VL: B1 VL

- fold change of affinity: 0 fold
B27: dBBDu183H H96K / dBBDu072L (antibody, name in Kabat numbering, V domains shown)
VH: B1 VH with H102K, H114G
VL: B1 VL

- fold change of affinity: 0 fold
B32: dBBDu183H H93R / dBBDu072L (antibody, name in Kabat numbering, V domains shown)
VH: B1 VH with H99R, H114G
VL: B1 VL

- fold change of affinity: 0 fold
B33: dBBDu183H T100bK / dBBDu072L (antibody, name in Kabat numbering, V domains shown)
VH: B1 VH with T108K, H114G
VL: B1 VL

From patent US20210388087A1
